The record followed here is patent US20120220015.

The target in one data set is T1, α2-antiplasmin (UniProt P08697).
T1 sequence: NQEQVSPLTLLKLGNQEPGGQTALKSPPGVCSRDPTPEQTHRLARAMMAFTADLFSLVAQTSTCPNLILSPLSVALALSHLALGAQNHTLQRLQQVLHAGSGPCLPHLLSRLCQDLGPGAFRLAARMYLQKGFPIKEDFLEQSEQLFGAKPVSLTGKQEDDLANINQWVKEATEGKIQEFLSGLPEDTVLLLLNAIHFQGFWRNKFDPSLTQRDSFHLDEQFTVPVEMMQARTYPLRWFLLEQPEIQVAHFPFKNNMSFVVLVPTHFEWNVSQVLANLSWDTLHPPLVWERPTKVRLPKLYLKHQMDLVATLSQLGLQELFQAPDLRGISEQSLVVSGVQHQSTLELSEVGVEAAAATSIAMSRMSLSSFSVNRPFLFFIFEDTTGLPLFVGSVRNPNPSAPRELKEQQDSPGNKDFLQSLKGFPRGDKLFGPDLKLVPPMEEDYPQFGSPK

For data set [1], the target named is fibrin (clot formed from purified fibrinogen with α-thrombin) (UniProt P02671).
Chain of fibrin (clot formed from purified fibrinogen with α-thrombin) (P02671 36-629, chain 1 of 3): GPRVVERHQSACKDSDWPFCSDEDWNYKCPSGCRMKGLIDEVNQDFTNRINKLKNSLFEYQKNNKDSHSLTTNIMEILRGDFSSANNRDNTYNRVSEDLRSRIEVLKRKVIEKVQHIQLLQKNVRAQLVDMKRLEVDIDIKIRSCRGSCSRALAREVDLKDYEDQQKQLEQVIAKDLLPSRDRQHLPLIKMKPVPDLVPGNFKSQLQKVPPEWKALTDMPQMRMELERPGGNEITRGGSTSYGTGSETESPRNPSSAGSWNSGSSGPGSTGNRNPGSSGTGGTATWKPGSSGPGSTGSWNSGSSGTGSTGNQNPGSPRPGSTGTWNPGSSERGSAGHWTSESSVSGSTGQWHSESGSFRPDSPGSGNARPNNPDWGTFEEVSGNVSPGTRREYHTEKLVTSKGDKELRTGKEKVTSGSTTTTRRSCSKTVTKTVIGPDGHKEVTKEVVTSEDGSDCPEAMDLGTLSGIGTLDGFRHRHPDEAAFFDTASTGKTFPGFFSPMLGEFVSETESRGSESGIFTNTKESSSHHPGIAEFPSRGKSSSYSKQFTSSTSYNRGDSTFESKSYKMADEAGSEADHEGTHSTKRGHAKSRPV
Chain of fibrin (clot formed from purified fibrinogen with α-thrombin) (chain, as listed by the source, chain 2 of 3): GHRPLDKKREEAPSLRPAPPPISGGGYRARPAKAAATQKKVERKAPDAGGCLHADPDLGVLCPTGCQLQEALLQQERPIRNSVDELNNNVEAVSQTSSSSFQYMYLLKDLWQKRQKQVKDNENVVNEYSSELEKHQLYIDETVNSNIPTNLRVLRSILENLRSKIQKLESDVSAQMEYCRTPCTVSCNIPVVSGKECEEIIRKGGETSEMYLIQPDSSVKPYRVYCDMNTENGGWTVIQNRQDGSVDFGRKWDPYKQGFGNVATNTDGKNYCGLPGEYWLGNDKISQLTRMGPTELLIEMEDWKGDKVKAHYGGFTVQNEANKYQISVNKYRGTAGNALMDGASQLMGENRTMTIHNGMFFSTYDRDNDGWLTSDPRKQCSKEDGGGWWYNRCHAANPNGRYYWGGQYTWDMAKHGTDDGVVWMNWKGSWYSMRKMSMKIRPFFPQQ
Chain of fibrin (clot formed from purified fibrinogen with α-thrombin) (chain, as listed by the source, chain 3 of 3): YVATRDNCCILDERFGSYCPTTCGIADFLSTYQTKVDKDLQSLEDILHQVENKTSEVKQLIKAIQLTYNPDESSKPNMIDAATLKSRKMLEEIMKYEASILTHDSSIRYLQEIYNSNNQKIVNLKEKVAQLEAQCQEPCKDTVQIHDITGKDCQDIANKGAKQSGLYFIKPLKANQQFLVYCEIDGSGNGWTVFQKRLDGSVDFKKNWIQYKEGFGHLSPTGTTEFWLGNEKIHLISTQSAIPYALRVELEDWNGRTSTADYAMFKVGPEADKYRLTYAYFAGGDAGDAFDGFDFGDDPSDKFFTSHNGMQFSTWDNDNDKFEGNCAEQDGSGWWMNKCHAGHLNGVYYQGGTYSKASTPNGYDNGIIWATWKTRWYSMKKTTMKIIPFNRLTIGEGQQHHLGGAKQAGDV

Consider “human reference plasmin (commercial, human-derived plasmin)”, for which the “plasmin activity (S-2403 hydrolysis at 405 nm) after 30 minutes pre-incubation with α2-AP, plasmin:α2-AP molar ratio of 1:1” value with α2-antiplasmin is reported as “no plasmin activity was detected for human, BAP12-B2-150, or BAP01-B1-230 plasmin, indicating that the inhibition was complete”. Further, the “fibrin clot lysis (decrease of turbidity at 340 nm), plasmin at 500, 250, 125 and 62 nM” value in data set [1] is on record as “steeper slopes of the curves with increasing plasmin concentrations”.
